Where a chain is given by its changes, count along the chain named. Like-named read-outs stand apart in the source and are kept apart here.
B1: PG4289 (antibody, IgG1, V domains shown)
VH: QVQLVQSGSELKKPGASVKVSCKTSGYTFTDYAMTWVRQAPGQGLEWMGWITTNTGDPTYAPGFTGRFVFSLDTSVSTAYLQISSLKAEDTAVYYCARVYHWIRGFEFWGQGTLVTVSS
VL: not shown
notes: Mono-specific bivalent full length IgG1 with the common light chain; also called MF4289; MG4289
B2: PG4003 (antibody, IgG1, V domains shown)
VH: QVQLVQSGSELKKPGASVKVSCKASGYTFPSFAMNWLRQAPGQGLEWMGWITTNTGDPTYAQGFSGRFVFSLDTSVSTAYLQISSLKAEDTAVYYCARVYNWIRGFDYWGQGTLVTVSS
VL: not shown
notes: Mono-specific bivalent full length IgG1 with the common light chain; also called MF4003; MG4003
B3: PG4280 (antibody, IgG1, V domains shown)
VH: QVQLVQSGAEVKKPGASVKVSCKVSGYTLTELSMHWVRQAPGKGLEWMGGFDPEYGKTFFAQNFQGRVTMTEDTSADTAYMELSSLRSEDTAVYYCATEGYYETTTYYYNLFDSWGQGTLVTVSS
VL: not shown
notes: Mono-specific bivalent full length IgG1 with the common light chain; also called MF4280; MG4280
B4: PG3998 (antibody, IgG1, V domains shown)
VH: QVQLVQSGSELKKPGASVKVSCKASGYTFTNNAINWVRQAPGQGLEWMGWINTITGDPTYAQGFTGRFVFSLDTSVSTAYLQISSLKAEDTGVYYCAREEFLEWLFFDYWGQGTLVTVSS
VL: not shown
notes: Mono-specific bivalent full length IgG1 with the common light chain, from 293F cells; also called MF3998; MG3998
B5: PG4010 (antibody, IgG1, V domains shown)
VH: B4 VH with I34M, T59S, S77N, G92A
VL: not shown
notes: Mono-specific bivalent full length IgG1 with the common light chain; also called MF4010; MG4010

Experiments:
human EGFR, full length [1] = target: T1, human EGFR, full length (human, UniProt P00533 25-1210); assay: cell-based or functional assay
[2] = target: T2, human EGFR ECD-Fc fusion protein (R&D Systems) (human, UniProt P00533 25-645); assay: phage ELISA, Fab on phage, immobilized EGFR, no IgG
T2 construct: extracellular domain; also called rhEGFR-Fc; EGFR-Fc; not shown: Fc part of the bought fusion protein, not described

[3] = target: T3, chimeric cynomolgus-human EGFR (cynomolgus ECD, human trans-membrane …, UniProt P55245 25-1210 (rhesus entry)); assay: FACS, CHO cells transfected with chimeric cynomolgus/human EGFR, IgG at 5 µg/ml
T3 construct: also called cynomolgus EGFR; chimeric cyno-human receptor

[4] = target: T2, human EGFR ECD-Fc fusion protein (R&D …); assay: phage ELISA, Fab on phage, immobilized EGFR, with competitor ICR10 (Domain I)
[5] = target: T2, human EGFR ECD-Fc fusion protein (R&D …); assay: phage ELISA, Fab on phage, immobilized EGFR, with competitor EGFR.1 (Domain II)
[6] = target: T2, human EGFR ECD-Fc fusion protein (R&D …); assay: phage ELISA, Fab on phage, immobilized EGFR, with competitor Cetuximab (Domain III)
[7] = target: T2, human EGFR ECD-Fc fusion protein (R&D …); assay: phage ELISA, Fab on phage, immobilized EGFR, with competitor MatuzuMab (Domain III)
human EGFR, full length [8] = target: T1, human EGFR, full length; assay: FACS on CHO cells stably expressing wtEGFR (CHO-wtEGFR)
CHO-vIII = target: T4, CHO-vIII (human, UniProt P00533); assay: FACS on CHO cells expressing EGFR variant III (CHO-vIII)
T4 construct: expressed on CHO cells; also called EGFR variant III

[9] = target: T3, chimeric cynomolgus-human EGFR; assay: FACS, CHO cells transfected with chimeric cynomolgus/human EGFR, IgG at 5 µg/ml; remark: listed apart in the source
CHO-delta II = target: T5, CHO-delta II; assay: FACS on CHO cells expressing the domain II swap mutant (CHO-delta II)
T5 construct: also called EGFR HER3 swap varII ECD; domain II swap mutant

CHO-delta IV = target: T6, CHO-delta IV; assay: FACS on CHO cells expressing the domain IV swap mutant (CHO-delta IV)
T6 construct: also called EGFR HER3 swap varIV ECD; domain IV swap mutant

CHO-delta III = target: T7, CHO-delta III; assay: FACS on CHO cells expressing the domain III swap mutant (CHO-delta III)
T7 construct: also called EGFR HER3 swap varIII ECD; domain III swap mutant
T7 chain: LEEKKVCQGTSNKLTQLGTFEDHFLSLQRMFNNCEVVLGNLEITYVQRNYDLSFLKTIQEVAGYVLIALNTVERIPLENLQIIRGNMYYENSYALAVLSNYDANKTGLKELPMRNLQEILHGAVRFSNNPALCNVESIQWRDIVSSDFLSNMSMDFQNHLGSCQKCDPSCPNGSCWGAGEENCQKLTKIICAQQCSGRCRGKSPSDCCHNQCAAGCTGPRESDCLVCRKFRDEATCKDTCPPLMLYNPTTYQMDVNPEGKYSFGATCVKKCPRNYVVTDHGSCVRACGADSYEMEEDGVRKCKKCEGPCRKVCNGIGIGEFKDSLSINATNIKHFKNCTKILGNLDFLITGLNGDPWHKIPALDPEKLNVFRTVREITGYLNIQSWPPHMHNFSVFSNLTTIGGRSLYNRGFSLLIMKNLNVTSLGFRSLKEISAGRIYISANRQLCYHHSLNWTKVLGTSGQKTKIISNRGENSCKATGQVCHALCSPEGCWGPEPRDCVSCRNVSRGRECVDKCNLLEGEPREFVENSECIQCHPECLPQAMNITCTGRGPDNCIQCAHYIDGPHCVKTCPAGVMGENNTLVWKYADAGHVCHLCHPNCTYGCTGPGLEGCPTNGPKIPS

[10] = target: T8, mouse EGFR ECD fused to human IgG1 Fc (Sino Biologicals cat. nr. 51091-M02H) (mouse; human, UniProt Q01279 25-647); assay: ELISA on coated mouse EGFR ECD-human IgG1 Fc
T8 construct: extracellular domain; also called murine EGFR; not shown: human IgG1 Fc

Binder | EGFR blocking activity compared to cetuximab (inhibition of EGF-induced cell death of A431 cells) (human EGFR, full length [1]) | OD [2] | binding result [3] | OD [4] | OD [5] | OD [6] | OD [7] | binding result (human EGFR, full length [8]) | binding result (CHO-vIII) | binding result [9] | binding result (CHO-delta II) | binding result (CHO-delta IV) | binding result (CHO-delta III) | binding result [10]
B1 | 80% | 2.28 | binds | 2.05 | 2.23 | 2.22 | 2.36 |  |  |  |  |  |  | 
B2 |  |  |  |  |  |  |  | binds | no binding | binds | binds | binds | binds | 
B3 | 100% | 2.55 | binds | 2.3 | 2.13 | 1.14 | 0.613 |  |  |  |  |  |  | no binding (tested: 5 µg/ml)
B4 | > 100% | 2.49 | binds | 2.23 | 2.34 | 0.101 | 0.671 |  |  |  |  |  |  | 
B5 |  |  |  |  |  |  |  | binds |  | binds | binds | binds | no binding | 

From patent publication US10844127 (MERUS N V, dated 2020)
